Experiment [1] has as its target His-tagged mouse B7-H3 (mouse) (UniProt Q8VE98). Put plainly: ELISA, coated His-tagged antigen, scFv-Fc 1 ug/ml.
The target of experiment [2] is His-tagged human B7-H3 (human) (UniProt Q5ZPR3). The experiment in a line: ELISA, coated His-tagged antigen, scFv-Fc 1 ug/ml.
For experiment [3] the target is unchanged. The experiment in a line: ELISA OD450 on hu B7-H3 over OD450 on mu B7-H3. On the technique in general: An ELISA detects its analyte on a solid surface through an enzyme-linked reagent.

Chain of His-tagged human B7-H3 (human) (Q5ZPR3 other isoform, or with tags, fused parts or gaps limits assumed): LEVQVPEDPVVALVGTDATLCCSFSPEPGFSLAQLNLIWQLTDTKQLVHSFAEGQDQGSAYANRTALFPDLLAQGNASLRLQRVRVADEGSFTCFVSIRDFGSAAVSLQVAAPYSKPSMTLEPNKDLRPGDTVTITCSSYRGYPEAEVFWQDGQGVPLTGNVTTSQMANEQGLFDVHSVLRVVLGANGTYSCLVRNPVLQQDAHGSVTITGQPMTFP
Chain of His-tagged mouse B7-H3 (mouse) (Q8VE98 29-244 limits assumed): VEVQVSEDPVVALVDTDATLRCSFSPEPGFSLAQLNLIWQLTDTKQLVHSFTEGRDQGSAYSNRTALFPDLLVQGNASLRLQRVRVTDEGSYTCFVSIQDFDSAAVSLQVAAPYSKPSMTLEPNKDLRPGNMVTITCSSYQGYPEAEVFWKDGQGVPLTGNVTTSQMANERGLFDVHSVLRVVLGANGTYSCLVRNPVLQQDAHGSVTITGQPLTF

B1: 40633p1.2.C11 (scFv, V domains shown)
VH: EVQLLESGGGLVQPGGSLRLSCAASGFTFSSYWMSWVRQAPGKGLEWVAGINRNGGSTYYADSVKGRFTISRDNSENTLYLQVNSLRAEDTAVYYCARWNDYDIMDVWGQGTTVTVSS
VL: QSVLTQPSSASGTPGQRVTISCSGSSSNVGRRAVNWYQQLPGTAPKLLISNSQRPSGVPDRFSGSKSGTSASLAISGLQSEDEADYYCATWDASLNSWVFGGGTKLTVL
On to B1, for which the figures for the ELISA OD450 @ 1 ug/ml in experiment [1] and in experiment [2] were 0.045 OD450 and 0.049 OD450, respectively. In addition, the hu:mu ratio in experiment [3] stood at 1.09.

B2: 40579p1.H11 (scFv, V domains shown)
VH: EVQLLESGGGLVQPGGSLRLSCAASGFTFDDYGMSWVRQAPGKGLEWVSAIRSKASSYATYYADSVKGRFTVSRDNSENTLYLQMNSLRAEDTAVYYCAKHRSNYYFMDVWGQGTTVTVSS
VL: EIVLTQSPGTLSLSPGERATLSCRASQSVGSDLAWYQQRPGQAPRLLIYAASSRATDIPDRFSGSGSGTDFTLTISSLQSEDFAVYYCQQYYSWPPLTFGGGTKVEIK
In experiment [2], B2 showed an ELISA OD450 @ 1 ug/ml of 0.077 OD450. Also, the hu:mu ratio in experiment [3] was 1.51.

The values above are taken from US20260008852A1.
